Measurements reported in patent US20230272023A1 (HUMAN CELL, published 2023).

Columns and labels:
[1] = target: T1, human TrkA on TF1 erythroleukemic cells (human, UniProt P04629 33-796); assay: cell-based or functional assay
[2] = target: T1, human TrkA on TF1 erythroleukemic cells; assay: cell-based or functional assay; remark: listed apart in the source
[3] = target: T1, human TrkA on TF1 erythroleukemic cells; assay: cell-based or functional assay; remark: listed apart in the source
[4] = target: T2, TrkA receptor immobilized on the Biacore chip (UniProt P04629 33-423, limits assumed); assay: SPR, Biacore 3000; against NGF wt
Protocol: (§1) The binding experiments were performed on Biacore 3000 at 25° C. Receptors were directly immobilized by direct immobilization using EDC/NHS amine coupling kit and GE protocol. The receptor was coated until the desired RU. The unoccupied active sites on the chip were quenching by flowing 1 M ethanol amine. […] Data were analyzed using Biacore 3000 bia evaluation software (Biacore) using the values after reference subtraction. KD was determined by applying either local (for scouting) or global (full kinetics) 1:1 Langmuir fitting model. Full kinetics was performed with the range of analyte at a 2-fold serial dilution and flowed over the ligand from lowest to highest concentration range.

[5] = target: T3, p75^NTR receptor immobilized on the Biacore chip (UniProt P08138 29-250); assay: SPR, Biacore 3000; against NGF wt
T3 sequence (looked up): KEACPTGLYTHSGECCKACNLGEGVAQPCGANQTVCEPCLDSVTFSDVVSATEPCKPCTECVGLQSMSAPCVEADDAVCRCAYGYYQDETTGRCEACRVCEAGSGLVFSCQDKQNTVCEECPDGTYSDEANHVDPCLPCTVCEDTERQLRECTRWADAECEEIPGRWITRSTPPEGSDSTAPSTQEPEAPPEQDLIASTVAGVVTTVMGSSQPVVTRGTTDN
Protocol: as §1

[6] = target: T3, p75^NTR receptor immobilized on the …; assay: SPR, Biacore 3000; Table 4 column Binding affinity (nM), P75^NTR
Protocol: as §1

[7] = target: T2, TrkA receptor immobilized on the …; assay: SPR, Biacore 3000; Table 4 column Binding affinity (nM), TrkA receptor
Protocol: as §1

[8] = target: T2, TrkA receptor immobilized on the …; assay: SPR, Biacore 3000; ratio of the affinity for TrkA over that for p75^NTR
Protocol: as §1

[9] = target: T3, p75^NTR receptor immobilized on the …; assay: SPR, Biacore 3000, 25 C, receptor amine-coupled on chip, NGF mutein as analyte
Protocol: as §1

[10] = target: T2, TrkA receptor immobilized on the …; assay: SPR, Biacore 3000, 25 C, receptor amine-coupled on chip, NGF mutein as analyte, 1:1 Langmuir
Protocol: as §1

T1 sequence (P04629 33-796): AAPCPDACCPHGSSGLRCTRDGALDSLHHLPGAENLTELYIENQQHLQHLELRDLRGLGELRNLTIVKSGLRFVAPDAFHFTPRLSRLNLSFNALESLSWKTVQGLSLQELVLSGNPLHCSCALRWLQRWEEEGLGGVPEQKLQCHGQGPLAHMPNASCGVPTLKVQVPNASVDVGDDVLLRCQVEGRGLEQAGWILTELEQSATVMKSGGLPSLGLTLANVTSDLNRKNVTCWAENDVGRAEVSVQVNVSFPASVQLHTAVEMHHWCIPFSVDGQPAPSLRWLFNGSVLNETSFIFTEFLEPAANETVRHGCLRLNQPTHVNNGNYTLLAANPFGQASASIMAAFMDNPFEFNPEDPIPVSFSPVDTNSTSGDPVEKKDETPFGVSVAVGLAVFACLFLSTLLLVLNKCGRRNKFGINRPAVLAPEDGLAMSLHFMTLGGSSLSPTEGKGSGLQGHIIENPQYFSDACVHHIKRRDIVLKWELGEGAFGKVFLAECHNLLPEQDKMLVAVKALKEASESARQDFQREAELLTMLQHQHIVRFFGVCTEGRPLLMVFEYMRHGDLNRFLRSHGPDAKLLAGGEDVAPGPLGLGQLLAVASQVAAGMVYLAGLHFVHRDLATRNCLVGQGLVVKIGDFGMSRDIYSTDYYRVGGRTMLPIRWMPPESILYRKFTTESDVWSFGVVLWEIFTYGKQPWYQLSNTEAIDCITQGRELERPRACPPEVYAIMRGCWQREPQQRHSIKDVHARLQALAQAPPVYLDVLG
T2 sequence (P04629 33-423 limits assumed): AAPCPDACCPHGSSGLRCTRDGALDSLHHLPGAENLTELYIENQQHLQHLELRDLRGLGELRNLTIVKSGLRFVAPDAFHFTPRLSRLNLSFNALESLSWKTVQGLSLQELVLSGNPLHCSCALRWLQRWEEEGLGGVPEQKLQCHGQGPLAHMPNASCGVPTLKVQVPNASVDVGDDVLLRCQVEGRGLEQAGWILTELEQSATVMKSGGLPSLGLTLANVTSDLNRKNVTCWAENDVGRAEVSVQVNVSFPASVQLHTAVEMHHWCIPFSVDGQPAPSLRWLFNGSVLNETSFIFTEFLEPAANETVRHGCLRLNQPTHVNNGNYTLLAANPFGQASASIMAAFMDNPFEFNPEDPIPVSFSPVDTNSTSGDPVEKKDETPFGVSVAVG

B1: NGF K34A/R69A (ligand)
chain: SSSHPIFHRGEFSVCDSVSVWVGDKTTATDIKGAEVMVLGEVNINNSVFKQYFFETKCRDPNPVDSGCAGIDSKHWNSYCTTTHTFVKALTMDGKQAAWRFIRIDTACVCVLSRKAVRRA
How did the “EC50 in TF-1 proliferation assay, protein kept 7 days at 4° C.” value (“EC50 in TF-1 proliferation assay … at 4° C.” below) [1] turn out when B1 was run?
Its value is 9.13 ng/mL.

B2: NGF K34A/R69A/R100E (ligand)
chain: SSSHPIFHRGEFSVCDSVSVWVGDKTTATDIKGAEVMVLGEVNINNSVFKQYFFETKCRDPNPVDSGCAGIDSKHWNSYCTTTHTFVKALTMDGKQAAWEFIRIDTACVCVLSRKAVRRA
Which “EC50 in TF-1 proliferation assay … at 4° C.” value [1] does the source give for B2 here?
Its value is 689 ng/mL.

B3: NGF K34D/R100E (ligand)
chain: SSSHPIFHRGEFSVCDSVSVWVGDKTTATDIKGDEVMVLGEVNINNSVFKQYFFETKCRDPNPVDSGCRGIDSKHWNSYCTTTHTFVKALTMDGKQAAWEFIRIDTACVCVLSRKAVRRA
How did the “EC50 in TF-1 proliferation assay … at 4° C.” value [1] turn out when B3 was run?
Its value is 58.8 ng/mL.

B4: NGF K34D/R69A (ligand)
chain: SSSHPIFHRGEFSVCDSVSVWVGDKTTATDIKGDEVMVLGEVNINNSVFKQYFFETKCRDPNPVDSGCAGIDSKHWNSYCTTTHTFVKALTMDGKQAAWRFIRIDTACVCVLSRKAVRRA
For B4, which “EC50 in TF-1 proliferation assay … at 4° C.” value [1] is on record?
Its value is 12.3 ng/mL.

B5: NGF K34D/K32A (ligand)
chain: SSSHPIFHRGEFSVCDSVSVWVGDKTTATDIAGDEVMVLGEVNINNSVFKQYFFETKCRDPNPVDSGCRGIDSKHWNSYCTTTHTFVKALTMDGKQAAWRFIRIDTACVCVLSRKAVRRA
For B5, which “EC50 in TF-1 proliferation assay, 4° C.” value [2] is on record?
Its value is 1.91 ng/mL.

And the “EC50 in TF-1 proliferation assay, after storage at 55° C.” value [2]?
The value was 9.7 ng/mL.

B6: NGF K34D/R69A/R100D (ligand)
chain: SSSHPIFHRGEFSVCDSVSVWVGDKTTATDIKGDEVMVLGEVNINNSVFKQYFFETKCRDPNPVDSGCAGIDSKHWNSYCTTTHTFVKALTMDGKQAAWDFIRIDTACVCVLSRKAVRRA
B6 was tested. Which “EC50 in TF-1 proliferation assay … at 4° C.” value [1] did it give?
The value was 23 ng/mL.

B7: NGF K34D/K32D (ligand)
chain: SSSHPIFHRGEFSVCDSVSVWVGDKTTATDIDGDEVMVLGEVNINNSVFKQYFFETKCRDPNPVDSGCRGIDSKHWNSYCTTTHTFVKALTMDGKQAAWRFIRIDTACVCVLSRKAVRRA
notes: Double mutein of mature human NGF; expressed in HEK293 cells; also called NGF34D/K32D; NGF34D/32 D
How did the “EC50 in TF-1 proliferation assay, 4° C.” value [2] turn out when B7 was run?
The value was 2.62 ng/mL.

And the “EC50 in TF-1 proliferation assay, after storage at 55° C.” value [2]?
Its value is 1.15 ng/mL.

What about the “TrkA receptor Bio-activity” value [3] of the same binder?
Its value is 2.62 ng/mL.

And the “binding affinity, % of wildtype” value [4]?
Its value is 5.9 % of wildtype.

What about the “fold reduction of binding affinity against wildtype” value [4] of the same binder?
Its value is 18 fold.

What about the “fold reduction of binding affinity against wildtype” value [5] of the same binder?
Its value is 625 fold.

And the Kd [6]?
The Kd was over 200 nM.

What about the Kd [7] of the same binder?
Its Kd is 0.61 nM.

What about the “Binding selectivity (TrkA/p75^NTR)” value [8] of the same binder?
The value was over 328 fold.

What about the Kd [9] of the same binder?
The Kd was over 200 nM.

And the Kd [10]?
Its Kd is 0.607 nM.

And the koff [10]?
Its koff is 0.00398 s⁻¹.

What about the kon [10] of the same binder?
Its kon is 6.54e+06 M⁻¹ s⁻¹.
